Measured values: patent US7220837
Where a chain is given by its changes, count along the chain named. Names may count otherwise.

T1: membrane-associated tissue factor (Innovin, Dade), P13726
T1 chain: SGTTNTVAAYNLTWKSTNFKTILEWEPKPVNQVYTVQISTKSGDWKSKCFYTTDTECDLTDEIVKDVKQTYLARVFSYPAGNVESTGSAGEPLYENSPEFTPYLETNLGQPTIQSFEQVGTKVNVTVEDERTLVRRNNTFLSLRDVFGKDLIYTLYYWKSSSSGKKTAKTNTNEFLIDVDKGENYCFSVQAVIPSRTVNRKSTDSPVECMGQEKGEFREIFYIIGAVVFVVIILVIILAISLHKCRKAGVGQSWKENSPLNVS

B1: factor VII mutant Q11E33D36 (protein)
chain: ANAFLEELRQGSLERECKEEQCSFEEAREIFEDADRTKLFWISYSDGDQCASSPCQNGGSCKDQLQSYICFCLPAFEGRNCETHKDDQLICVNENGGCEQYCSDHTGTKRSCRCHEGYSLLADGVSCTPTVEYPCGKIPILEKRNASKPQGRIVGGKVCPKGECPWQVLLLVNGAQLCGGTLINTIWVVSAAHCFDKIKNWRNLIAVLGEHDLSEHDGDEQSRRVAQVIIPSTYVPGTTNHDIALLRLHQPVVLTDHVVPLCLPERTFSERTLAFVRFSLVSGWGQLLDRGATALELMVLNVPRLMTQDCLQQSRKVGDSPNITEYMFCAGYSDGSKDSCKGDSGGPHATHYRGTWYLTGIVSWGQGCATVGHFGVYTRVSQYIEWLQKLMRSEPRPGVLLRAPFP
B2: factor VII F5K (protein)
chain: B1 chain with F4K, Q10P, E32K, D35E

Experiments:
[1] = molecular target: membrane-associated tissue factor (Innovin, Dade) (UniProt P13726)
[2] = molecular target: T1, membrane-associated tissue factor …

| Molecule | activity in the competitive assay of Example 6 [1] | activity in the competitive assay of Example 6 [2] |
| --- | --- | --- |
| Factor VII mutant Q11E33I34F35 | displayed similar activity as the Q11E33F34I35 mutant | – |
| B1 | – | had 70% the activity of the Q11E33 mutant |
| B2 | – | 33% of the activity of wild type factor VII |
